The values below come from article PMC7018950, “A conserved strategy of chalcone isomerase-like protein to rectify promiscuous chalcone synthase specificity” (Nature Communications, 2020).

Experiment [1] addresses T1, His6-tagged Arabidopsis thaliana chalcone synthase (AtCHS) (Arabidopsis thaliana, UniProt P13114 1-395).
T1 construct: also called TT4; source: E. coli BL21 (pCold I), purified; not shown: His6, N-terminal, kept
T1 sequence (looked up): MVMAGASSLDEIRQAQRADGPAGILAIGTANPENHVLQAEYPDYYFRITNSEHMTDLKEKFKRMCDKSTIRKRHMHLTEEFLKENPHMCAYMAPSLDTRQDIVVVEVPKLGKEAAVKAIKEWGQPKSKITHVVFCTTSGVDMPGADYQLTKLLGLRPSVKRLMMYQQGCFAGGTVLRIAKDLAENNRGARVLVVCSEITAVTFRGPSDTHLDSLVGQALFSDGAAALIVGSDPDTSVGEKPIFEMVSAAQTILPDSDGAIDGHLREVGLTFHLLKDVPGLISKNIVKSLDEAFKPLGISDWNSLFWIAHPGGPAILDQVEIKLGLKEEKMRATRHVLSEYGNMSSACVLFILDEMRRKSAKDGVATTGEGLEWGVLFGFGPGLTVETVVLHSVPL
In words: BLI; BLItz; His6-tagged CHS immobilised on anti-His6 sensors, GST-tagged CHIL loaded (30-150 s), wash (150-270 s); 100 mM HEPES-NaOH, pH 7.5; 1:1 binding model; apparent KD. Particulars: both partners purified.

Experiment [2] deals with T2, glutathione S-transferase-tagged CHIL of morning glory (Ipomoea nil (morning glory)).
T2 construct: the purification of the GST fusions is not described; also called InCHIL; EFP; source: E. coli (pGEX4T-1)
Briefly: BLI; BLItz; His6-tagged CHS immobilised on anti-His6 sensors, GST-tagged CHIL loaded; 100 mM HEPES-NaOH pH 7.5; 1:1 binding model; apparent KD. Conditions: both partners purified. For orientation: Biolayer interferometry detects binding as a change in optical thickness at a sensor tip.

Usually koff stands for the rate constant with which the complex falls apart. Broadly, the kon is the rate constant with which the complex forms.

B1: glutathione S-transferase-tagged Arabidopsis thaliana chalcone isomerase-like protein (AtCHIL) (natural protein)
chain: MVMVHEVPFPPQIITSKPLSLLGQGITDIEIHFLQVKFTAIGVYLDPSDVKTHLDNWKGKTGKELAGDDDFFDALASAEMEKVIRVVVIKEIKGAQYGVQLENTVRDRLAEEDKYEEEEETELEKVVGFFQSKYFKANSVITYHFSAKDGICEIGFETEGKEEEKLKVENANVVGMMQRWYLSGSRGVSPSTIVSIADSISAVLT
notes: chalcone isomerase-like protein AtCHIL, Arabidopsis thaliana; source: E. coli (pGEX4T-1)
Turning to B1, in experiment [1], the Kd was found to be 9.15 nM, the koff was found to be 0.00137 s⁻¹ and the kon is 150000 M⁻¹ s⁻¹.

B2: His6-tagged CHS of morning glory (enzyme)
chain: MVTVEEVRKAQRAEGPATILAIGTATPANCVDQSTYPDYYFRITNSDHMTDLKQKFQRMCDKSMITKRYMHLTEEILKENPSFCEYMAPSLDARQDIVVVEVPKLGKEAAQSAIKEWGQPKSKITHVIFCTTSGVDMPGADYQLTKLLGLRPSVKRLMMYQQGCFAGGTVLRVAKDLAENNKAARVLVVCSEITVVTFRGPNETHLDSLVGQALFGDGAAAIIVGSDPTPAEKPLFQLVSAAQTLAPDSCGAIDGHLREVGLTFHLLKDVPSIVSNNIEKCLSEAFNPLGISDWNSIFWIAHPGGPAILDQVEDKLGLKPEKLRATRHVLSEYGNMSSACVLFILDEMRKASSNDGLGTTGEGLEWGVLFGFGPGLTIETVVLHSVPA
Regarding B2, the Kd in experiment [2] amounted to 1 nM.
